B1: HEEH_KT_rd6_3632 (parent)
chain: DAEELIELVERALKEGREIILLGVRITSEEAGKWFIEWIRRFL

Variants of: B1
Experiment: folding stability dG (cDNA display proteolysis); higher = more stable
Details: PBS, room temperature

Folding stability dG [kcal/mol], by site and new letter:
W34: L 3.72, Y 3.43, I 3.6, C 3.78, R 3.98, M 3.61, K 3.81, H 3.54, N 3.48, D 3.39, P 2.66, A 4.01
L43: E 2.91, Q 3.22, F 4.01, V 3.48, K 3.09, R 3.03
F35: N 2.53, H 2.85, L 3.66, G 2.63, R 2.98, W 3.44, E 2.63
E10: L 4.16, T 3.92, N 3.82, V 3.99, D 3.41, A 3.63, R 4.03
A31: M 4.08, P 3.15, S 3.65, N 3.49, L 4.06, K 3.6, F 3.83, V 4.27
K33: I 3.56, G 3.34, F 3.48, W 3.7, Y 3.61, D 3.38, Q 3.62
E4: Q 3.95, N 3.78, Y 4.24, C 4.61, A 3.96, D 3.65, P 3.64, M 4.01, W 4.19
E37: A 3.81, I 3.87, R 3.62, T 3.47, P 2.92, V 3.79
T27: H 3.79, Y 3.74, I 3.9, F 4.03, E 3.44, L 3.98, S 3.67, A 3.94
E3: L 3.97, I 3.85, R 4.16, M 3.73, A 3.87, S 3.74
V24: P 3.03, R 3, Q 3.13, L 3.43, M 3.43, T 3.25, D 2.71, Y 3.55, S 2.86, N 2.99
I6: H 3.29, G 3.18, P 3.08, E 3.18, S 3.18, L 3.62, R 3.38, C 3.95, W 3.99, V 3.48
R25: N 3.44, S 3.51, Y 3.65, F 3.79, M 3.66, E 3.28, Q 3.41, D 3.21
E7: S 3.88, C 4.46, D 3.7, K 4.05, L 3.91, M 3.82, A 3.99, F 3.74, T 3.82
R40: A 3.39, F 3.87, I 3.77, K 3.69, M 3.89, Y 3.69, S 3.27, H 3.32, C 4.03, G 3.04
E29: V 3.79, Y 3.96, S 3.71, H 3.67, P 4.06
R41: M 3.93, S 3.72, Q 3.6, N 3.57, I 3.74, E 3.37, K 3.76, G 3.45
R11: E 3.38, Q 3.54, V 3.37, N 3.51, D 3.28, Y 3.15, M 3.41, F 3.16, G 3.19
V9: W 3.15, R 2.87, A 3.19, H 2.85, C 4.04, T 3.09, P 2.93, L 3.59, Q 2.7, D 2.93
G32: Y 3.85, S 3.39, H 3.44, F 4.17, I 4.12, A 4.05, W 4.07, M 4.07
L8: S 3.08, P 2.77, T 3.28, A 3.47

Source: the MegaScale stability set (Tsuboyama et al. 2023)
